Experimental data taken from patent publication US20060287243A1, “Stable pharmaceutical compositions including motilin-like peptides” (priority 2005, published 2006).
Square brackets hold non-standard residues; d marks the D form.

Legend:
Assay type in all cases: physicochemical
[1] = Long-term storage stability of the aqueous buffered composition; conditions: pH between approximately 3 and 9, preferably 4.8-5.2
Description: The aqueous pharmaceutical compositions of the present invention provides benefits previously unknown. The motilin-like peptide of pharmaceutical compositions of the present invention remains stable when stored over a wide range of temperatures for extended periods of time. For example, when stored at room temperature or its preferred lower storage temperature of 4° C.-5° C., substantial stability is maintained for significant periods of time. For example, at a storage temperature of approximately 25° C., the peptide contained in the composition of the present invention remains stable for at least 12 months, and more preferably at least approximately 18 months and, even more preferably, up to and even beyond approximately 24 months, retaining a potency of 90% or more as shown, for example, in FIG. 1. At a storage temperature of 5° C., storage with only marginal degradation (and a potency of at least 90-95%) of up to at least 18 months is regularly observed.
Whether prepared and stored as an aqueous unbuffered solution, an aqueous buffered solution, a ready-to-use or concentrated, or a lyophilized composition that is subsequently reconstituted, the pharmaceutical compositions of the present invention remains potent during storage for extended periods of time. […]

[2] = Stability of motilin-like peptide following autoclaving and storage (HPLC, undegraded peptide remaining); conditions: 30 μg/ml in 10 mM sodium acetate buffer pH 5.0, Type I glass vials, autoclaved 121° C. 15 minutes, storage 3 months at 55° C. (FIG. 2)
Description: A further advantage of the pharmaceutical composition of the present invention is its peptide stability when the composition is subjected to elevated temperatures such as the temperature of steam sterilization. Many peptides are inherently unstable and, when subjected to heat, are known to degrade very rapidly, typically in a few minutes or less. In contrast, in compositions of the present invention, the peptide substantially retains its stability (i.e., remains substantially undegraded and retains a substantial percentage of its initial potency), even after the composition is (1) subjected to steam sterilization (for at least 10 minutes and up to 60 minutes at temperatures of approximately 100° C.-128° C. and typically 121° C.), and (2) subsequently stored in a suitable container (described below) at lower temperatures typically encountered by a pharmaceutical composition, such as about 4° C.-5° C. to about 25° C.
The motilin-like peptide of SEQ ID NO.: 1 was dissolved at a concentration of 30 μg/ml in 10 mM sodium acetate buffer, pH 5.0. […] The potency of the peptide following storage at each temperature was measured over time by testing samples after incubation of one week, two weeks, three weeks, one month and three months. Potency was determined by using HPLC to measure the amount of undegraded peptide remaining in each sample. […]

[3] = Stability of lyophilized formulations of motilin-like peptide, reconstituted in water (HPLC); conditions: 30 μg/ml in 10 mM citrate buffer, 1% w/v sucrose, pH 6.0, lyophilized, stored in 20 ml vial at 40° C. for several months (FIG. 5)
Description: The motilin-like peptide including SEQ ID NO.: 1 was dissolved at a concentration of 30 μg/ml in 10 mM citrate buffer and 1% w/v of sucrose (bulking agent) at pH 6.0. The composition was lyophilized by standard techniques and stored in a 20 ml vial at 40° C. The potency of the motilin-like peptide was measured at the time intervals indicated in FIG. 5, by reconstituting the composition in water. Potency was determined by using HPLC to measure the amount of undegraded peptide remaining in each sample. […] (Again, it will be appreciated by those skilled in the art that the stability of pharmaceutical compositions at elevated temperatures, such as 40° C. as in FIG. 5, may serve as the basis of prediction of stability for longer periods at more typical storage temperatures, such as approximately 20° C.-25° C. or 4° C.-8° C., for example).

[4] = Storage stability of aqueous buffered composition in Schott Type 1 vials
Description: Some plastics have also proven to be effective in assisting in the stabilization of the peptide composition. In this regard, preferred plastics are cyclic olefin copolymers, available, for example, from West Pharmaceuticals under the product name CZ resin vials, or from Schott under the product name TopPac vials, or from Alcan packaging under the product name Ticona Topas serum vials. The compositions of the present invention may also be stored in PVC, as well as non-PVC flexible bags. When stored in the above described glass or plastic containers, the above-described storage times at the above-described storage temperatures can be achieved, although for storage periods of at least 18 months, Type I Plus (vapor treated silicon) vials and Type I Plus glass ampules are preferred. […] It will be appreciated by those skilled in the art that the measured stability of pharmaceutical compositions at elevated temperatures, such as 40° C. or higher, may serve as the basis of prediction of stability for longer periods at more typical storage temperatures, such as 20°-25° C. or 4°-8° C., for example. Such “accelerated storage” studies are common in the field of the present invention.

(Me3N)^+Phe-Val-Pro-Ile-Phe-Thr-Tyr-Gly-Glu-Leu-Gln-D-Arg-Leu-Lys-NH2 ({N,N,N‑trimethyl}-FVPIFTYGELQ[dR]LK-NH2) [SEQ ID NO.: 1, synthetic motilin-like peptide receptor agonist]
degradation during storage [1]: only minimal degradation | potency retained (undegraded peptide remaining by HPLC) [2]: greater than 90% | potency retained (undegraded peptide remaining by HPLC) [3]: greater than 90% | stability (maintenance of potency) ([4]; 30 μg/ml, several months at 5° C. to 55° C. (FIG. 4)): demonstrated stability | stability (maintenance of potency) ([4]; approximately 5 μg/ml, several months at 5° C. to 55° C. (FIG. 3)): demonstrated stability
